Data as given in article PMC10118082 (PLOS ONE, 2023).
Values joined by “and” are separate entries in the source; they are usually repeats but may differ in a detail not shown here. Equal entries are not always repeated.

Columns and labels:
[1] = biological target: T1, human complement component 5 (C5) (Homo sapiens, UniProt P01031); experiment: cell-based or functional assay
[2] = biological target: T1, human complement component 5 (C5); experiment: SEC-MALS; antibody (700 nM) plus C5 (400 nM) incubated about 30 min at room temperature in PBS; Bio SEC-5 1000 A column run in PBS; no eculizumab; settings: both partners purified

B1: mAb TPP-2799 (antibody, V domains shown)
VH: QVQLVESGGGLVQPGRSLRLSCAASGFTVHSSYYMAWVRQAPGKGLEWVGAIFTGSGAEYKAEWAKGRVTISKDTSKNQVVLTMTNMDPVDTATYYCASDAGYDYPTHAMHYWGQGTLVTVSS
VL: DIQMTQSPSSLSASVGDRVTITCRASQGISSSLAWYQQKPGKAPKLLIYGASETESGVPSRFSGSGSGTDFTLTISSLQPEDFATYYCQNTKVGSSYGNTFGGGTKVEIK
notes: heavy chain of Chugai mAb RO7112689 (crovalimab) as described in CAS Registry Number 1917321-26-6; light chain of Chugai mAb RO7112689 (crovalimab) as described in CAS Registry Number 1917321-26-6; MALS mass alone 154 kDa; also called RO7112689; source: Expi293, transiently expressed, purified (MabSelect SuRe); copies: 2 + 2
- IC50 of inhibition of classical-pathway hemolysis of antibody-sensitized chicken red blood cells in 20% (v/v) human serum [1]: 30 nM
- stoichiometry N [2]: 1 C5 per TPP-2799 and 2 C5 per TPP-2799
